Data on one molecule can be found in patent CN117820472A (VAZYME MEDICAL CO LTD; HUNAN NOVAZYME MEDICAL TECH CO LTD, dated 2024).

The target of this assay is T1, Tau 181多肽 (also: biotin coupling for SA coating, place not given here).
T1 peptide: CPPAPKTPP
Description: indirect ELISA, cell supernatants on SA+biotin peptide plates (m1 as a member of the 80 antibodies). (In general: In an ELISA, binding on a coated surface is turned into a signal by an enzyme label.)

Ends that are not written are not given here.

B1: Anti-p-Tau 181-rRmab-1 (antibody, V domains shown)
VH: CQSVEESGGRLVTPGTPLTLTCTVSGFSLSIYAMSWVRQAPGKGLEYIGYIVSSGSTYYASWAKGRVTISKTSSTTVDLKITSPATEDTATYFCARGSITGFTRLELWGQGTLVTVSS
VL: DIVMTQTPASVEAAVGGTVTIKCQASESISSGLAWYQQKPGQPPKLLIYGASTLASGVPSRFKGSRSGTEYTLTISDLECADAATYYCQSYYYSSGSSLLYGFGGGTEVVVK
notes: Recombinant rabbit monoclonal antibody from single B cell cloning, expressed in HEK293 cells and purified on protein A. Only the variable domains are printed
On to B1, for which the binding result is on record as “no binding”.
